Experimental data taken from PMC7588459 (Scientific Reports, 2020).
Where a chain is given by its changes, count along the chain named. Names and notes keep the numbering of the source.

Target: T1, Nipah virus attachment (receptor-binding) glycoprotein (GP), wild type (Nipah virus; strain of the assayed …, UniProt Q9IH62)
T1 construct: source: HEK 293-F FreeStyle, transiently transfected, purified from supernatant (Ni-NTA)
Experiment: ELISA
Settings: both partners purified

B1: m102.4 VH K31A (antibody, V domains shown)
VH: EVQVIQSGADVKKPGSSVKVSCKSSGGTFSAYAINWVRQAPGQGLEWMGGIIPILGIANYAQKFQGRVTITTDESTSTAYMELSSLRSEDTAVYYCARGWGREQLAPHPSQYYYYYYGMDVWGQGTTVTVSS
VL: EIVMTQSPGTLSLAPGERATLSCWASQSVRNNYLAWYQQKPGQAPRLVIYNGSTRATGIPDRFSGSGSGTDFTLTISRLDPEDFAVYYCQQYGNSRRVTFGGGTKVEIK
  Kd: 0.08 nM

B2: m102.4 VH H108A (antibody, V domains shown)
VH: B1 VH with A31K, H108A
VL: B1 VL
  Kd: 0.09 nM

B3: m102.4 VH Y114A (antibody, V domains shown)
VH: B1 VH with A31K, Y114A
VL: B1 VL
  Kd: 0.07 nM

B4: m102.4 VH A106W (antibody, V domains shown)
VH: B1 VH with A31K, A106W
VL: B1 VL
  Kd: 4.95 nM

B5: m102.4 VH I54A (antibody, V domains shown)
VH: B1 VH with A31K, I54A
VL: B1 VL
  Kd: 0.13 nM

B6: m102.4 VH E103A (antibody, V domains shown)
VH: B1 VH with A31K, E103A
VL: B1 VL
  Kd: 1.83 nM

B7: m102.4 VH Q104A (antibody, V domains shown)
VH: B1 VH with A31K, Q104A
VL: B1 VL
  Kd: 0.1 nM

B8: m102.4 VH Y113A (antibody, V domains shown)
VH: B1 VH with A31K, Y113A
VL: B1 VL
  Kd: 0.12 nM

B9: m102.4 VH L55A (antibody, V domains shown)
VH: B1 VH with A31K, L55A
VL: B1 VL
  Kd: 0.1 nM

B10: m102.4 VL R30A (antibody, V domains shown)
VH: B1 VH with A31K
VL: B1 VL with R30A
notes: also called LC:R30 to alanine
  Kd: 0.13 nM

B11: m102.4 VH Y112A (antibody, V domains shown)
VH: B1 VH with A31K, Y112A
VL: B1 VL
  Kd: 0.11 nM

B12: m102.4 VH S110A (antibody, V domains shown)
VH: B1 VH with A31K, S110A
VL: B1 VL
  Kd: 0.13 nM

B13: m102.4 VH P107A (antibody, V domains shown)
VH: B1 VH with A31K, P107A
VL: B1 VL
  Kd: 0.09 nM

B14: m102.4 VH L105A (antibody, V domains shown)
VH: B1 VH with A31K, L105A
VL: B1 VL
  Kd: 0.1 nM

B15: m102.4 VH P109A (antibody, V domains shown)
VH: B1 VH with A31K, P109A
VL: B1 VL
  Kd: 0.1 nM

B16: m102.4 VH G56A (antibody, V domains shown)
VH: B1 VH with A31K, G56A
VL: B1 VL
  Kd: 0.09 nM

B17: m102.4 VH Q111A (antibody, V domains shown)
VH: B1 VH with A31K, Q111A
VL: B1 VL
  Kd: 0.08 nM

B18: m102.4 VH I57A (antibody, V domains shown)
VH: B1 VH with A31K, I57A
VL: B1 VL
  Kd: 0.1 nM

B19: m102.4 VH R102A (antibody, V domains shown)
VH: B1 VH with A31K, R102A
VL: B1 VL
  Kd: 0.09 nM
